# Test results from the nanobody polyreactivity screen of Harvey et al. (2022).
# Test: yeast display, Sf9 membrane polyspecificity reagent, FACS + sequencing; frameworks hold sequencing errors
# Outline: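 Nanobodies from a synthetic yeast display library (Saccharomyces cerevisiae BJ5465), induced 36–48 hours with galactose, were stained 1 hour at 4 °C with 10% biotinylated, detergent-solubilized Sf9 membrane reagent, enriched on streptavidin microbeads, then FACS-sorted. Anti-HA (expression) and streptavidin (reagent binding) fluorescence set low and high (top ~1%) gates. Polyreactivity labels come from the gate of origin. Genes were colony-PCR amplified, MiSeq 2 × 250 sequenced and filtered by CDR length.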
row,Sequence,polyreactivity (PSR sort gate)
1,QVQLVESGGGLVQAGGSLRLSCAASGIIFRRNAMGWYRQAPGKERELVAAIRWSGGSTYYADSVKGRFTISRDNAKNTVYLQMNSLKPEDTAVYYCAARYYRPRYEMDYWGQGTQVTVSS,low polyreactivity
2,QVQLVESGGGLVQAGGSLRLSCAASGIIFRRYAMGWYRQAPGKERELVAAISSSGGNTYYADSVKGRFTISRDNAKNTVYLQMYSLKPEDTAVYYCAARSQIYYRYRSYGYWGQGTQVTVSS,high polyreactivity
3,QVQLVESGGGLVQAGGSLRLSCAASGIIFRRYAMGWYRQAPGKERELVATITWSGGSTYYADSVKGRFTISRDNAKNTVYLQMNSLKPEDTAVYYCAKRGSRLYRLDYWGQGTQVTVSS,high polyreactivity
4,QVQLVESGGGLVQAGGSLRLSCAASGIIFRTYAMGCYRQAPVKERELVAAITGSGGITYYADSVKGRFTISRDNAKNTVYLQMNSLKPEDTAVYYCAARGTRDGVQRYGYWGQGSQVTVSS,high polyreactivity
5,QVQLVESGGGLVQAGGSLRLSCAASGIIFRTYDMGWYRQAPGKERELVANISWSAGSTYYADSVKGRFTISRDNAKNTVYLQMNSLKPEDTAVYFCNAVRLYPSSYDYWGQGTQVTVSS,low polyreactivity
6,QVQLVESGGGLVQAGGSLRLSCAASGIIFRVNAMGWYRQAPGKERELVAAISSGGRTYYADSVKGRFTISRDNAKNTVYLQMNSLKPEDTAVYYCAAKPPSTYDYWGQGTQVTVSS,high polyreactivity
7,QVQLVESGGGLVQAGGSLRLSCAASGIIFRVYTMGWYRQAPGKERELVAGISSGDSTSYADSVKGRFTISRDNAKNTVYLQMNSLKPEDTAVYYCNAVAYYSYSANFRNAYDYWGQGTQVTVSS,low polyreactivity
8,QVQLVESGGGLVQAGGSLRLSCAASGIIFRWYVMGWYRQAPGKERELVAAISYRRGSTNYADSVKGRFTISRDNAKNTVYLQMNSLKPEDTAVYYCNRVPYPGSRRKYDYWGQGTQVTVSS,high polyreactivity
9,QVQLVESGGGLVQAGGSLRLSCAASGIIFRYNAMGWYRQAPGKERELVAVINWRSGGTYYADSVKGRFTISRDNAKNTVYLQMNSLKPDDTADYYCADRVGSWTQSFGYDYWGQGTQVTVSS,high polyreactivity
10,QVQLVESGGGLVQAGGSLRLSCAASGIIFRYNTMGWYRQAPGKERELVAAISGGGRTYYADSVKGRFTISRDNAKNTVYLQMNSLKPEDTAVYYCAARYRTSGLDNYWGQGTQVTVSS,high polyreactivity
11,QVQLVESGGGLVQAGGSLRLSCAASGIIFRYYAMGWYRQAPGKERELVAAISSSGVSTYYADSVKGRFTISRDNAKNTVYLQMNSLKPEDTAVYYCNAVIWVRQYFSRSSSNYWGQGTQVTVSS,high polyreactivity
12,QVQLVESGGGLVQAGGSLRLSCAASGIIFRYYAMGWYRQAPGKERELVAAITSRGGSTYYADSVKGRFTISRDNAKNTVYLQMNSLKPEDTAVYYCATAYYYFSTSRADGEYWGQGTQVTVSS,high polyreactivity
13,QVQLVESGGGLVQAGGSLRLSCAASGIIFRYYAMGWYRQAPGKERELVAAITWSGGTYYADSVKGRFTISRDNAKKTVYLQMNSLKPEETAVYYCAAVYYGYRDRTDYGYWGQGTQVTVSS,high polyreactivity
14,QVQLVESGGGLVQAGGSLRLSCAASGIIFRYYAMGWYRQAPGKERELVARITSRGGTYYADSVKGRFTISRDNAKNTVYLQMNSLKPEDTAVYDCAASYLLTHGYAYNYWGQGTQVTVSS,high polyreactivity
15,QVQLVESGGGLVQAGGSLRLSCAASGIIFRYYAMGWYRQAPGKERELVAVITRSGGSTYADSVKGRFTISRDNAKNTVYLQMNSLKPEDTAVYYCAAQWYLGYATRWRGGYWGQGTQVTVSS,high polyreactivity
16,QVQLVESGGGLVQAGGSLRLSCAASGIIFSDYAMGWYRQAPGKERELVAAISRNGGSTYYADSVKGRFTISRDNAKNTVYLHMTSLKPEDTAVYYCAATRRYRYNWGQGTQVSVSS,high polyreactivity
17,QVQLVESGGGLVQAGGSLRLSCAASGIIFSDYGMGWDRQAPGKERELVAAINSGGRTYSADSVKGRFTISRDNAKNTVYLQMNSLKPEDTAVYYCAADTQGSRYDYWGQGTQVTVSS,high polyreactivity
18,QVQLVESGGGLVQAGGSLRLSCAASGIIFSFYAMGWYRQAPGKERELVADITLSGGRTYYADSVKGRFTISRDNAKNTVYLQMNSLKPEDTAVYYCNDETYERGDYWGQGTKVTVSS,high polyreactivity
19,QVQLVESGGGLVQAGGSLRLSCAASGIIFSFYTMGWYRQAPGKERELGAAITWSGGSTYYADSVKGRFTISRDNAKNTVYLQMNSLKPEDTAVYYCARSQAVYDGWFAKFGYWGQGTQVTVSS,low polyreactivity
20,QVQLVESGGGLVQAGGSLRLSCAASGIIFSGYVMGWYGQAPGKERELVAAISRSGGRTFYADSVKGRFTISRDNAMNTVYLQMNSLKPEDTAVYYCAKVPSYVRGHGYQYDHWGQGTQVTVSS,high polyreactivity
21,QVQLVESGGGLVQAGGSLRLSCAASGIIFSIYAMGWYRQAPGKERELVAAISGRGGRTYYADSVKGRFTISRDNAKNTVYLQMNSLKPVDTAVYYCIAEYLDLYDYWGQGTQVTVSS,low polyreactivity
22,QVQLVESGGGLVQAGGSLRLSCAASGIIFSPYAMGWYRQAPGKERELVAAISYSGGSTYYADSVKGRFTITRDNAKNTVYLQMNSLKPEDTAVYYCAVVYSYYLAVLGYWDYDYWGQGTQVTVSS,low polyreactivity

row,Sequence,polyreactivity (PSR sort gate)
1,QVQLVESGGGLVQAGGSLRLSCAASGIIFSPYAMGWYRQAPGKERELVAAISYSGGSTYYADSVKGRYTISRDNAKNSVYLQMNSLKPEETAVYYCAVFYSYYLAFMGYWDYDYWGQGTQVTVSS,low polyreactivity
2,QVQLVESGGGLVQAGGSLRLSCAASGIIFSSYAMGWYRQAPGKERELVAAITRGGSTNYADSVKGRFTISRDNAKNTVYLQMNSLKPEDTAVYYCNALWRAYRNYHYIVKNDYWGEGTQVTVSS,high polyreactivity
3,QVQLVESGGGLVQAGGSLRLSCAASGIIFSSYAMGWYRQAPGKERELVAAITSGGSTNYADSVKGRFTISRDNAKNTVYLQMNSLKPEDTAVYYCATVHAKPYYYWGQGTQVTVSS,low polyreactivity
4,QVQLVESGGGLVQAGGSLRLSCAASGIIFSVNAMGWYRQAPGKERELVAAISGSGGRTYYADSVKGRFTISRDNAKNTVYLQMNSLKPEDTAVYYCAARRTGKSYYGSRSGFDYWGQGTQVTVSS,high polyreactivity
5,QVQLVESGGGLVQAGGSLRLSCAASGIIFSVYAMGWYRQAPGKERELVAAISWSGTSTYYADSVKGRFTISRDNAKNTVYLQMNSLKPEDTAVYYCNAKRYRYFGNEYWGQGTQVTVSS,high polyreactivity
6,QVQLVESGGGLVQAGGSLRLSCAASGIIFSWYAMGWYRQAPGKERELVASITASGGSTYYADSVKGRFTISRDNAKNTVYLQMNSLKPEDTAVYYCAVRYGHRSFASVYVEYEYWGQGTQVTVSS,low polyreactivity
7,QVQLVESGGGLVQAGGSLRLSCAASGIIFSYNVMGWSREARGKEREFVAAISRSVGSTYYADSVKGRFTISRDNAKNTVYLPMNSLKPEDTAVYYCNARGKRRGKIPYSSYASSYDSWGQGTQVTVSS,high polyreactivity
8,QVQLVESGGGLVQAGGSLRLSCAASGIIFSYYDMGRYRQAPGKERELVATITGNGGSTYYADSVKGRFTISRDNAKNTVYLQMNSLKPEDTAVYYCAAQTTVYIYDYWGQGTQVTVSS,low polyreactivity
9,QVQLVESGGGLVQAGGSLRLSCAASGIIFSYYTMGWYRQEPGKEREVVAAISARGGRTYYADSVKGRFTISRDNAKNTVYLQMNSLKPEDTAVYYCAASWSTEYYWGQGTQVTVSS,high polyreactivity
10,QVQLVESGGGLVQAGGSLRLSCAASGIIFTDNAMGWYRQAPGKERELVATISWSTDNTYYADSVKGRFTISRDNAKNTVYLQMNSLKPEDTAVYYCAAEEYYAYWYQYDYWGQATQVTVSS,low polyreactivity
11,QVQLVESGGGLVQAGGSLRLSCAASGIIFTDYAMGWYRQAPGIERELVAAISGSGGSTYYADSVKGRFTISRDNAKNTVYLQMNSLKPEDTAVYYCAAATHIFLQVYYAYGYWGQGTQVTVSS,high polyreactivity
12,QVQLVESGGGLVQAGGSLRLSCAASGIIFTFYAMGWYRQAPGKERELVAAISYSSGSTYADSVKGRFTISRDNAKNTVYLQMNSLKPDDTAVYYCAVDLFPGHSYTYDYWGQGTQVTVSS,low polyreactivity
13,QVQLVESGGGLVQAGGSLRLSCAASGIIFTGNAMGWYIQAPGKERELVAAITSGDTTNYADSVKGRFTISRDNAKNTVYLQMNSLKPEDTAVYYCAKELQVRQAGDYWGQGTQVTVSS,low polyreactivity
14,QVQLVESGGGLVQAGGSLRLSCAASGIIFTGNAMGWYRQAPGKERELVAAITSGDTTNYADSVKGRFTISRDNAKNTVYLQMNSLKPEDTAVYFCAIELQVRQAGDYWGQGTQVTVSS,low polyreactivity
15,QVQLVESGGGLVQAGGSLRLSCAASGIIFTQYAMGLYRQAPGKERELVAAISGSGGRTYYADSVKGRFTISRDIAKNTVYLQMNSLKPEDTAVYYCAARYARYGNDYWGQGTQVTVSS,high polyreactivity
16,QVQLVESGGGLVQAGGSLRLSCAASGIIFTRNAMGWYRPAPGKERELVAASSRSGGSTYYADSVKGRFTISRDNAKNTVYLQMNSLKPEDTAVYDGAAAWSEYPYDYWGQGTQVTVSS,low polyreactivity
17,QVQLVESGGGLVQAGGSLRLSCAASGIIFTRYAMGWYRQAPGKERELVAAITRNGVSTYYADSVKGRFTISRDNAKNSVYLQMNSLKPEDTAVYYCNTYVLRRYAYGYWGQGTQVTVSS,high polyreactivity
18,QVQLVESGGGLVQAGGSLRLSCAASGIIFTRYVMGWYRQAPGKERELVATIRIGGSTTYADSVKGRFTISRDNAKNTVYLQMNSLKPEDTAVYYCAADTWYITTYGGAGSYAYGFYYWGQGTQVTVSS,low polyreactivity
19,QVQLVESGGGLVQAGGSLRLSCAASGIIFTSNTMGWYRPAPGKEREFVASINWNGSSTYADSVKGRFTISRDNAKNTVYLQMYSLKPDDTAVYYCNADSNRNSVQFSLYDYWGQGTQVTVSS,low polyreactivity
20,QVQLVESGGGLVQAGGSLRLSCAASGIIFTSYAMGWYRQAPGKERELVAVITGTGGITYYADSVKGRFTISRDNAKNTVYLQMNSLKPEDTAVYYCAAELELREYDYWGQGTQVTVSS,high polyreactivity
21,QVQLVESGGGLVQAGGSLRLSCAASGIIFTTNAMGWYRQAPGKERELVATITSGGGTYYADSVKGRFTISRDNAKNTVYLQMNSLKPVDTAVYYCAATPGWGPWIFDHSYVDFDYWGQGTQVTVSS,low polyreactivity
